The values that follow come from the nanobody polyreactivity screen of Harvey et al. (2022).

The nature of this data set: yeast display, Sf9 membrane polyspecificity reagent, FACS + sequencing; frameworks hold sequencing errors. In outline: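 Nanobodies from a synthetic yeast display library (Saccharomyces cerevisiae BJ5465), induced 36–48 hours with galactose, were stained 1 hour at 4 °C with 10% biotinylated, detergent-solubilized Sf9 membrane reagent, enriched on streptavidin microbeads, then FACS-sorted. Anti-HA (expression) and streptavidin (reagent binding) fluorescence set low and high (top ~1%) gates. Polyreactivity labels come from the gate of origin. Genes were colony-PCR amplified, MiSeq 2 × 250 sequenced and filtered by CDR length.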
On to “QVQLVESGGGLVQAGGSLRLSCAASGSIFPDYAMGWYRQAPGKERELVAAITWRDDSTYYADSVKGRFTISRDNAKNTVYLQMNSLKPEDTAVYYCNASALDPLFAKDDYWGQGTQVTVSS”, for which the “polyreactivity (PSR sort gate)” value is listed as “low polyreactivity”.
In the case of “QVQIVESGGGLVQAGGSLRLICAASGRILSANAMGWYRQAPGKERELVAAITYSGDNTYYADYVKGRFTISRDNANNTVYLQMNSLKPEDTAVYYCAREFQVDGGEEDYWGQGTQVTVSS”, the “polyreactivity (PSR sort gate)” value is reported as “low polyreactivity”.
On to “QVQLVESGGGLVQAGGSLRLSCAASGGIFVFYAMGWYRQAPGKERELVAAITYRGGSTSYADSVKRRFTISRDNAKNTVYLQMNSLKPEDTAVYYCNARRRTWYGFYYWGQGTQVTVSS”, for which the “polyreactivity (PSR sort gate)” value is on record as “high polyreactivity”.
As for “QVQLVESGGGIVQAGGSLRLSCAASGSTFGFYAMGWYRQAPGKERELVAAISSAARTYYADSVKGRFTISRDNAMNTVYLQMNSMKPEDTAVYYCSAEAYHWTSYIGYGGVYYWGQGTKVTVSS”, the “polyreactivity (PSR sort gate)” value is reported as “low polyreactivity”.
Regarding “QFQLVESGGGLVQAGVSLRLSCAASGRIFSLYAMGWYRQAPGKERELVAAISYSGGSTYADSVKGRFTFSRDNAKNTVFLQMNSLKPEDTAVYYCAAEEYLAYAQFDYWGQGTQVTVSS”, the “polyreactivity (PSR sort gate)” value is “low polyreactivity”.
In the case of “QVQLVESGGGLVQAGGSLRLSCAASGNIFYYYAMGWYRQAPGKERELVATISKGGGSTNYADSVKGRFTISRDNAKNTVYLQMNSLKPEDTAVYYCNASYVSRRYHFDYWGQGTQVTVSS”, the “polyreactivity (PSR sort gate)” value is recorded as “high polyreactivity”.
On to “QVQLVESVGGLVQAGGSLRLSCAASGFIFSQYAMGWDRKAPGKERELVAAISKSGGRTYYADSVKGRFTFSRDNAKNTVYLQMNSLKPEDTAVYYCAAVSYSSYRYDYWGQGTQVTVSS”, for which the “polyreactivity (PSR sort gate)” value is “high polyreactivity”.
For “QVQLVESGGGLVQAGGSLRLSCAASGSTFVHYAMGWYRQAPGKERELVAAITISGGRTYYADSVKGRFTISRDNAKNTVYLQMNSLKAEDTAVYYCNADHYHRTWGYDYWGQGTQVTVSS” the value was “low polyreactivity”; for “QVQLVESGGGLVQAGGSLRLICAASGFTLDQYAMGWYRPAPGKERELVAVITSGGNTYYADSVKGRFTISRDNAKNTVYLQMNSLKPEDTAVYYCAKDVSDPFYDPFEYWGQGTQVTVSS”, “low polyreactivity”; for “QVQLVESGGGLVQAGGSLRLSCAASGSTFGGYAMGWYRQAPGKERELVAAINSGGSTYYADSVKGRFTISRDNAKNTVYLQMNSLKPEDTSVYYCNADSQVLRDYISDYWGQGTQVTVSS”, “low polyreactivity”.
Regarding “QVQLVESGGGLVQAGGSLRLSCAASGRTFYRNAMGWYRQAPGKERELVAAISRSGGRTYYADSVKGRFTISRDNAKNTVYLHMNSLKPEDTAVYYCNAQPTLAVADYDYWGQGTQVTVSS”, the “polyreactivity (PSR sort gate)” value is listed as “high polyreactivity”.
With “QVQLVDSGGGLVQAGGSLRLSCAASGSIFDSYVKGWYRQAPGKERELVAAITYSGGSTYADSVKGRFTISRDNAKNTVYLQMNSLKPEDTAVYYCAAASYFYMFLLEDYWGQGTHVTVSS”, the “polyreactivity (PSR sort gate)” value was “low polyreactivity”.
On to “QVQLVESGGGLVQAGGSLRLSCAASGRIFRHYAMGWYRQAPGKERELVAAISGGGGRTYYADSVKGRFTISRDNAKNTVYLQMNSLKPEDTAVYYCAKRPSYAYSRYRKGHDYWGQGTQVTVSS”, for which the “polyreactivity (PSR sort gate)” value was “high polyreactivity”.
For “QVQLVESGGGLVQAGGSLRLSCAASGGIFDIYAMGWYRQAPGKERELVAANRGSGGRTYYADSVKGRFTISRDNAKNTVYLQMNSLKPEDTAVYYCAARPSIVTGLRYGYWGQGTQVTVSS”, the “polyreactivity (PSR sort gate)” value is “high polyreactivity”.
Turning to “QVQLVESAGGLVQAGGSLRLSCAASGSIFGLYAMGWSRQAPGKDRELVAAITSAGSTYYADSVKGRFTISRDNAKNTVYLQMNTLKPEDTAVYYCAARGFYQFPSYYYWGKGTQVTVSS”, the “polyreactivity (PSR sort gate)” value is listed as “high polyreactivity”.
With “QVQLVESGGGVVQAGGSLRLSCAASGITFSRYAMGWYRQAPGKERELVAAISGSGGRTYYADSVKGRFTISRDNAKNTVYLQMNSLKPEDTAVYYCARESSYYKYYYWGQGTQVTVSS” the entry was “high polyreactivity”; with “QVQLVESGGGLVQAGGSLRLSCAASGFTLYRYAMGWYRQAPAKERELVAANNSRGGSTYYADSVKGRFTISRDNAKITVYLQMISLKPDDTAVYYCNARRIRGGVRLTSPFYYWGQGTHVTVSS”, “high polyreactivity”.
For the sequence “QVQLVESGGGLVQAGGSLRLSCAASGSIFYPYARGWYRQAPGKERELVASITINDGSTYYADSVKGRFTISRDNAKNTVYLQMNSLKPADTAVYYSAVDWLSVTSTIKFEMDYWGQGTQVTVSS”, the “polyreactivity (PSR sort gate)” value is listed as “low polyreactivity”.
Take “QVQLVESGGGLVQAGGSHRLTCAASGSTFRRYARGWYRQAPGKERELVATISSGRRTNYADSVKGRFTISRDNAKNTVYLQMNSLKPEDTAVYYCAAAYWSSRADTVIKRYYWGQGTQVTVSS”: the “polyreactivity (PSR sort gate)” value is reported as “high polyreactivity”.
For “QVQLVESGGGLVQAGGSLRLSCAASGFTFYVYAMGWYRQAPGKERELVAAISRSGGSTYYADSVKGRFTISRDNAKNTVYLQMNSLKPEDTAVYYFAVVQRYWSPGIVPYVYWGQGTQVTVSS”, the “polyreactivity (PSR sort gate)” value is “high polyreactivity”.
As for “QVQLVESGGGLVQAGGSLRLICAASGRIFRYNAMGWYRQAPGKERELVAAISSVGSTNYADSVKGRFTISRDNAKNTVYLQMNSLKPEDTAVYYCNAVVRSYVKTYRYYKVDYWGQGTQVTVSS”, the “polyreactivity (PSR sort gate)” value is listed as “high polyreactivity”.
With “EVQLVESGGGLVQAGGSLRLSCAASGRTFLVNAMGWSRPAPGKERELVAAISRSSGRTYYADSVKGRFTISRDNAKNTVYLQMNSLKPEDTAVYYCAARGYWGQGTQVTVSS” the entry was “high polyreactivity”; with “QVQLVESGGGLVQAGGSLRLSCAASGSSKLMLWDGIDRRLGKKGSWLPLFVLVVLRNYSDSVKGRFTISRDNAKNTVYLQMNSLKPEDTAVYYCAATPIGSGGWGDYWGQGTQVTVSS”, “low polyreactivity”; with “QVQLVESGGGLVQAGGSLRLSCAASGSIFVSYAMGWYRQAPGNDRELVAAISGGGVSTYYADSVKGRFSISRDNAKNTVYLQMNSLKPEDTAVYYCATPYVQTGSGYTGDYWGQGTQVTVSS”, “high polyreactivity”.
Turning to “QVQLVESGGGLVQAGGSLRLSCAASGRSFRYNAMGWYRQAPGKARELVAAISSGGSTNYADSVKGRFTTTRDNAKNTVYLQMNSLKPEDTAVYYCNAVYVHRYPGWGYDYWGQGTQVTVSS”, the “polyreactivity (PSR sort gate)” value is on record as “low polyreactivity”.
As to “QVQLVESGGGLVQAGGSLRLICAASGITLYRYAMGWYRQAPGKERELVADISSGGGTTYYADSVKGRFTISRDNAKNTVYLQMNSLKPEDTAVYYCAADYGFRYPLYDYWGQGTQVTVSS”, the “polyreactivity (PSR sort gate)” value was “low polyreactivity”.
As for “QVHLVESGGGLVQAGGSLRLSCAASGSIFGYNAMGWYRQAPGKERELVAAITWRGGSTYYADSVKGRFTISRDNAKNTVYLQMNSLKPEDTAVYYCAAYVYQEYDYWGQGTQVTVSS”, the “polyreactivity (PSR sort gate)” value is reported as “high polyreactivity”.
“QVQLVESGGGLVQAGGSLRLICAASGRTCRTYTMGLYRQATGKEREFVAAITSSGASTYYADSVKGRFTISRDKAKNTVYLQMNSLKPEDTAVYYCAARPRPRSANGMYYWGQVTQVTVSS”: the “polyreactivity (PSR sort gate)” value was “high polyreactivity”.
For “QVQLVESGGGLVQAGGSLRLSCAASGGTFYSYAMGWYRQAPGKERELVAAISRRGGSTYYADSVKGRFTISRDNAKNTVYLQMNSLKPEDTAVYYCNTYIYQVRDDYWGQGTQVTVSS” the value was “high polyreactivity”; for “QVQLQESGGGLVQAGGSLRLSCAASGNIVDADIMGWYRQAPGKERELVASITDGGSTNYADSVKGRFTISSDNAKNTVYLQMNSLKPEDTAVYYCAAIAYPDIPTYFDYDSEYFYWGQGTQVTVSS”, “low polyreactivity”.
Take “QVQLVESGGGLVQAGGSLRLSCAASGGIFGYYAMGWYRQAPGKEREFVAAISVSGGSTYYADSVKGRFTISRDNAKNTVYLQMNSLKPEDTAVYYCAADVIVLRPGEYDYWGQGTQVTVSS”: the “polyreactivity (PSR sort gate)” value is “low polyreactivity”.
On to “QDQLVESGGGLVQAGGSLRLSCAASGRTFVSYVMGGYRQAPGKERELVAAIRRRGGRTYYSDSVKGRFTISRDNAKNTVYLQMNSLKPEDTAVYYCAAAQPGTNAYRVGSWGQGTQVSVSS”, for which the “polyreactivity (PSR sort gate)” value is “high polyreactivity”.
As to “QVQLVESGGGLVQAGGSLRLSSAHSAIIFCLNSMGWYRQEPGKERELVAAITITDGSTYYADSVKGRFTISRDNAKNTVYLQMNSLKPEDTAVYYCNADAIVSPYRLWTVTFYYWGQGTQVTVSS”, the “polyreactivity (PSR sort gate)” value is given as “low polyreactivity”.
As for “QVQLVESGGGLVQAGGSLRLSCAASGSIFRWNAMGWYIQAPGKERELVAAIDSGGSTYADSVKGRFTISRDNAKNTVYLQMNSLKPDDTAVYYCAAEIPDEWPYDYWGQGTQVTVSS”, the “polyreactivity (PSR sort gate)” value was “low polyreactivity”.
For “QVQLVESGGGLVQAGGSLRLSCAASGITFGRNTMGWYRQAPGKERELVAAIDSGGNTYADSVKGRFTISRDNAKNTVYLQMNSLKPEDSAVYYCAVDGGEFSSYGYWGQGTQVTVSS” the value was “low polyreactivity”; for “QVQLVESGGGLVQAGGSLRLSCAASGFIFSRNVMGWYRQAPGKDRELVAAISRSGGSTYYADSVKGRFTISRDNAKNTVYLQMNSLKPEDTAVYYCAAVRRVYSQNDYWGQGTQVTVSS”, “high polyreactivity”.
As to “QVQHVESGGGLVQAGGSLRLSCAASGLTFHQYAMGWYRQAPGKERELVAAITGSGGSTYYADSVKGRVTISRDKAKNTVYLQMYSLKPEDTAVYYCAAKTYRRGGGYWGQGSQVTVSS”, the “polyreactivity (PSR sort gate)” value is “high polyreactivity”.
With “QDQLVESGGGLVQAGGSLRLICAASGYIFVYNAMGWYRQTPWKERELVAAITDGGGSTYADSVKGRFTISRDNAKNSVYLQMNSLKPEDTAVYYCSARYSDTTWYVLYYYWGQGTQVTVSS” the entry was “low polyreactivity”.
For “QVQLVESGGGLVQAGGSLRLSSAASGRIFFGNTMGWYRQAPGKERELVATIRKIGGRTYYADSVKGRFTISRDNAKNTVYLQMNSLKPEDTAVYYCATDFAPSYYPDRFDYWGQGTQVTVSS” the value was “low polyreactivity”; for “QVQLVESGGGLVQAGGSLRLSCAASGITFESNAMGWYRQAPGKEREFVAAISYDGGDTYYADSVKGRFTISRDNAKNTVYLQMNSLKPEDTAVYYCAAEPGWTMDYWGQGTQVTVSS”, “low polyreactivity”; for “QVQLVDSGGGLVQAGGSLRLSCAASGITFGRYAMGWYRQAPGKERELVATITVNGGRTYYADSVKGRFTISRDNAKNTVYLQMNSLKPEDTAVYYCAAESAVDFDYWGQGTQVTVSS”, “low polyreactivity”.
